T1: RAD52 NTD (Homo sapiens, UniProt P43351 1-209, del210-418)
T1 sequence: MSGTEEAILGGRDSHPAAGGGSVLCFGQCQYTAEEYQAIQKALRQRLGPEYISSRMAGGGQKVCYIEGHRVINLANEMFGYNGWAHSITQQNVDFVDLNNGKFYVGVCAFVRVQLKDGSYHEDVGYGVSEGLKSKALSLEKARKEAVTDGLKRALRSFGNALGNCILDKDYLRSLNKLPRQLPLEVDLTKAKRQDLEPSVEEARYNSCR

T2: RAD52-OR (open ring) (Homo sapiens, UniProt P43351 1-418)
T2 sequence: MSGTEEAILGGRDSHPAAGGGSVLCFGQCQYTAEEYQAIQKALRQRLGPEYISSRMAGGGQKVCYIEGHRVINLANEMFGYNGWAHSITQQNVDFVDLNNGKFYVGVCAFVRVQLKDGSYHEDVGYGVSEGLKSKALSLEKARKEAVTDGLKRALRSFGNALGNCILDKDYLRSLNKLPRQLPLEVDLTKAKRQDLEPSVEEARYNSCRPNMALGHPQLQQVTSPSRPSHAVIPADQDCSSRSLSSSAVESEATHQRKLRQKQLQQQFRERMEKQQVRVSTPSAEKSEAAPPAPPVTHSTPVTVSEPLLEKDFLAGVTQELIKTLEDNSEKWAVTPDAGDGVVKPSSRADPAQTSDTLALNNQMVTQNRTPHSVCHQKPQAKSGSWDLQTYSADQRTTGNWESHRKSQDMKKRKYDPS

T3: RAD52(∆C) (Homo sapiens, UniProt P43351 1-400, del401-418)
T3 sequence: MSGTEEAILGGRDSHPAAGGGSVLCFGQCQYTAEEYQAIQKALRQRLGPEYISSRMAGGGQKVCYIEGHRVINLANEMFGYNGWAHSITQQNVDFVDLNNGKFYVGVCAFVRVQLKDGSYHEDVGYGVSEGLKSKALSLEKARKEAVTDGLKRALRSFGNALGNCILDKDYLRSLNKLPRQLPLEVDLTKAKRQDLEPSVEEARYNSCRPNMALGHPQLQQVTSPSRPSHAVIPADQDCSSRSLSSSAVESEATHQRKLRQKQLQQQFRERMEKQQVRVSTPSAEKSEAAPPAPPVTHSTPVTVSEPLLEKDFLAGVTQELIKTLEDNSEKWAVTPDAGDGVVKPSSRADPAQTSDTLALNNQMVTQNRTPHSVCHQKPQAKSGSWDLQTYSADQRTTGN

T4: RAD52(∆RID) (Homo sapiens, UniProt P43351 1-418, del239-290)
T4 sequence: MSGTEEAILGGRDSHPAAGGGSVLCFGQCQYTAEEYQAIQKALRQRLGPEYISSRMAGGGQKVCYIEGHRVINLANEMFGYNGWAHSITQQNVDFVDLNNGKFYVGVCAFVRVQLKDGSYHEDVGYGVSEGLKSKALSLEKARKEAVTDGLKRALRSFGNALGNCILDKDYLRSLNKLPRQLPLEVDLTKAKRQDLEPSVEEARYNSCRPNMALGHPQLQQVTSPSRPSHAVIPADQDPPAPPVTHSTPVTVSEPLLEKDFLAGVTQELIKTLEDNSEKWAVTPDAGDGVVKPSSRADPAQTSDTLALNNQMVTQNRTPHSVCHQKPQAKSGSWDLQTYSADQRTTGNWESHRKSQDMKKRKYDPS


What was measured:
RAD52 NTD = biological target: T1, RAD52 NTD; test: fluorescence anisotropy; 1 mM Mg(OAc)2; ring concentration (11-mer); FA: 25 mM HEPES pH 8.0, 0.2 M KOAc, 10% glycerol, 0.25 mM TCEP, 1 mM Mg(OAc)2, 0.01% Brij-35, 25 °C, 10 nM DNA; BLI: 25 mM HEPES pH 8.0, 200 mM KOAc, 0.01% Tween-20, 1 mM Mg(OAc)2, 0.25 mM TCEP, 25 °C; settings: protein: recombinant; tags: none (tags removed); chain copies: 11; label: 5' 6-FAM; single strand
RAD52-OR (open ring) = biological target: T2, RAD52-OR (open ring); test: fluorescence anisotropy; 1 mM Mg(OAc)2; ring concentration (10-mer); FA: 25 mM HEPES pH 8.0, 0.2 M KOAc, 10% glycerol, 0.25 mM TCEP, 1 mM Mg(OAc)2, 0.01% Brij-35, 25 °C, 10 nM DNA; BLI: 25 mM HEPES pH 8.0, 200 mM KOAc, 0.01% Tween-20, 1 mM Mg(OAc)2, 0.25 mM TCEP, 25 °C; settings: protein: recombinant; tags: none (tags removed); chain copies: 10; label: 5' 6-FAM; single strand
RAD52(∆C) = biological target: T3, RAD52(∆C); test: fluorescence anisotropy; 1 mM Mg(OAc)2; FA: 25 mM HEPES pH 8.0, 0.2 M KOAc, 10% glycerol, 0.25 mM TCEP, 1 mM Mg(OAc)2, 0.01% Brij-35, 25 °C, 10 nM DNA; BLI: 25 mM HEPES pH 8.0, 200 mM KOAc, 0.01% Tween-20, 1 mM Mg(OAc)2, 0.25 mM TCEP, 25 °C; settings: protein: recombinant; tags: none (tags removed); chain copies: 11; label: 5' 6-FAM; single strand
RAD52(∆RID) = biological target: T4, RAD52(∆RID); test: as above; settings: protein: recombinant; tags: none (tags removed); label: 5' 6-FAM; single strand
RPA [1] = biological target: T5, RPA (Homo sapiens, UniProt P27694;P15927;P35244 1-616;1-270;1-121); test: as above; settings: protein: recombinant; tags: 10xHis on RPA3; copies: 1;1;1; label: 5' 6-FAM; single strand
T5 sequence (P27694 whole entry, chain 1 of 3): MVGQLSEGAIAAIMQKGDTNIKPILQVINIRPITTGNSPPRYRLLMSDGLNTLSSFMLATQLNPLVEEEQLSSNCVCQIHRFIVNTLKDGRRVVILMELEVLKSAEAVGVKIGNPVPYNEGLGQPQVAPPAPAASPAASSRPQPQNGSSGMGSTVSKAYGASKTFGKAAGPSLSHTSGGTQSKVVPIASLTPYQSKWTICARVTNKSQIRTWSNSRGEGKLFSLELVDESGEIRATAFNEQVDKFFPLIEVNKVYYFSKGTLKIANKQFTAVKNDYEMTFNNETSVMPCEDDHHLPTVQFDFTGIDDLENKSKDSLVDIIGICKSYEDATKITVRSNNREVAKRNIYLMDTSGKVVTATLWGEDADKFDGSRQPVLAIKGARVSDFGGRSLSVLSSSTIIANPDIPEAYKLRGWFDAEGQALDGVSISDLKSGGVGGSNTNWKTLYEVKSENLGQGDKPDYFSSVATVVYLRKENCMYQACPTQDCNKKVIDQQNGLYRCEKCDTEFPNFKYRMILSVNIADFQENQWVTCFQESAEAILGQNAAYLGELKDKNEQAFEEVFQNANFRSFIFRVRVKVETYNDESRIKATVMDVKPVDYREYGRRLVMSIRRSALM
T5 sequence (P15927 whole entry, chain 2 of 3): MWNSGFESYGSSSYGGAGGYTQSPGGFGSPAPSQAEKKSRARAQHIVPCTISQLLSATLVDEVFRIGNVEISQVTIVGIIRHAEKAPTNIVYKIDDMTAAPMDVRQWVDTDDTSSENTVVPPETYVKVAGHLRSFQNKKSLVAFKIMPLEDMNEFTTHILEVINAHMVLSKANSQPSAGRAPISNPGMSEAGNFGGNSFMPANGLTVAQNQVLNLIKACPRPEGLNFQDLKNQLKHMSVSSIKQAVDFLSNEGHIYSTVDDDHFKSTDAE
T5 sequence (P35244 whole entry, chain 3 of 3): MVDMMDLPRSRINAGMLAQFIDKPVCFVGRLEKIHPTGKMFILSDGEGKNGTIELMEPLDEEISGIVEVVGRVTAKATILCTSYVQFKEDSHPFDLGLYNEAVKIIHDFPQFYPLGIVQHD

RPA(∆WHD) = RPA(∆WHD) (Homo sapiens, UniProt P27694;P15927;P35244 1-616;1-206;1-121); test: as above; settings: protein: recombinant; tags: 10xHis on RPA3; copies: 1;1;1; label: 5' 6-FAM; single strand
Chain of RPA(∆WHD) (P27694 whole entry, chain 1 of 3): as the sequence (P27694 whole entry, chain 1 of 3) above
Chain of RPA(∆WHD) (P15927 1-206, chain 2 of 3): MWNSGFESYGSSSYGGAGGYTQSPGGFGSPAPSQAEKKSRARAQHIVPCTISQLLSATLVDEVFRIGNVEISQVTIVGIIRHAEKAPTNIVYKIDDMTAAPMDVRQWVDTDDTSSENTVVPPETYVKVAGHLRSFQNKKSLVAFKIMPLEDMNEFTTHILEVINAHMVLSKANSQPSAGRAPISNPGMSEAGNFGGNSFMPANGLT
Chain of RPA(∆WHD) (P35244 whole entry, chain 3 of 3): as the sequence (P35244 whole entry, chain 3 of 3) above

RPA [2] = biological target: T5, RPA; test: cryo-EM (3.2 Å, trimeric core); 2 mM Mg(OAc)2; FA: 25 mM HEPES pH 8.0, 0.2 M KOAc, 10% glycerol, 0.25 mM TCEP, 1 mM Mg(OAc)2, 0.01% Brij-35, 25 °C, 10 nM DNA; BLI: 25 mM HEPES pH 8.0, 200 mM KOAc, 0.01% Tween-20, 1 mM Mg(OAc)2, 0.25 mM TCEP, 25 °C; settings: protein: recombinant; tags: 10xHis on RPA3; copies: 1;1;1; single strand

Row | Binder | Kd (RAD52 NTD) [nM] | Kd (RAD52-OR (open ring)) [nM] | Kd (RAD52(∆C)) [nM] | Kd (RAD52(∆RID)) [nM] | Kd (RPA [1]) [nM] | Kd (RPA(∆WHD)) [nM] | binding result (RPA [2])
1 | TATCGAATCCGTCTAGTCAACGCTGCCGAATTCTACCAGT (ssDNA) [FAM-SSA4 (40 nt)] | 3.2 ± 0.6 | 0.3 ± 0.1 | 0.2 ± 0.2 | 0.7 ± 0.2 | 3.6 ± 0.5 | 3.4 ± 0.9 | 
2 | CGGCAGCGTTGACTAGACGGATTCGATA (ssDNA) [SSA7 (28 nt)] |  |  |  |  |  |  | binds
